US20230213527A1 (QUANTUM SI, published 2023)
Ends that are not written are not given here.

Tests used:
Assay in all cases: single-molecule on-chip dynamic sequencing; recognition of N-terminal leucine
[1] = biological target: T1, … (SEQ ID NO: 798), state with N-terminal leucine (LAFAYPDDD) (not fully specified (C-terminus); also: C-terminal azidolysine conjugated to DNA-streptavidin linker)
T1 construct: residue range inferred from the recognized N-terminal residue
T1 peptide: LAFAYPDDD
Procedure: (§1) To illustrate how the kinetic parameters acquired from sequencing are sensitive to changes in sequence composition, sequencing was performed with a set of three peptides […] (SEQ ID NO: 798), […] (SEQ ID NO: 799), and […] (SEQ ID NO: 800)—that differ only at a single position, located immediately downstream from the PS961 N-terminal target leucine.
(§2) The semiconductor chip was placed in the sequencing device and a chip check was performed to test electronic circuit function and to optimize laser coupling alignment. The chip was then removed from the device socket and the chip was washed twice with 50 μL of 70% isopropanol, followed by four washes with 30 μL of wash buffer (50 mM MOPS pH 8.0, 60 mM potassium acetate, 50 mM glucose, 20 mM magnesium acetate, and surfactant mix) through a flow cell attached to the chip. A second chip check was then performed. The laser was then blocked via an integrated software-controlled shutter, peptide complex was added to a final concentration of 1-10 nM and mixed thoroughly, and the chip was incubated for 15 min. The chip was then washed six times with wash buffer, followed by addition of an imaging solution (wash buffer with 5 mM Trolox and an oxygen scavenging system). The laser was unblocked and the occupancy percentage (target 10-30%, Poisson distributed) was recorded by acquiring a photobleaching signal from a fluorophore attached to the peptide complex during 5 min of laser illumination. For NAA recognition-only assays, after peptide loading, labeled recognizer was added to a final concentration of 50 nM PS610, 100 nM PS691, or 250 nM PS961 (as indicated according to the experiment), and data was recorded for 10 hours.

[2] = biological target: T2, … (SEQ ID NO: 799), state with N-terminal leucine (LIFAYPDDD) (not fully specified (C-terminus); also: C-terminal azidolysine conjugated to DNA-streptavidin linker)
T2 construct: residue range inferred from the recognized N-terminal residue
T2 peptide: LIFAYPDDD
Procedure: as §1, §2

[3] = biological target: T3, … (SEQ ID NO: 800), state with N-terminal leucine (LVFAYPDDD) (not fully specified (C-terminus); also: C-terminal azidolysine conjugated to DNA-streptavidin linker)
T3 construct: residue range inferred from the recognized N-terminal residue
T3 peptide: LVFAYPDDD
Procedure: as §1, §2

B1: PS961 (designed binder)
chain: MPTAASATESAIEDTPAPARPEVDGRTKPKRQPRYHVVLWDDDDHTYQYVVVMLRSLFGHPPSRGYRMAKEMDTQGRVIVLTTTREHAELKRDQIHAFGRDRLLARSKGSMKASIEAEE
notes: also called PS961 (L, I, V); PS961 (LIV)
- median pulse duration (PD) [1]: 1.29 s
- median pulse duration (PD) [2]: 2.22 s
- median pulse duration (PD) [3]: 4.21 s
